According to patent US20090311237A1, “Combination therapy using a soluble hyaluronidase and a bisphosphonate” (priority 2008, published 2009):

Experiments:
Sprague Dawley rats = experiment: Injection site reactions (gross ISR incidence, lesion area) after intradermal injection of zoledronic acid with or without rHuPH20; assay type: in vivo, rat; details: for shift of half maximal effect (EC50) of ZA concentration vs lesion area curve: with vs without 10,000 U/mL rHuPH20
Method: A rodent model of local injection site injury caused by ZA injection was employed for the study. […] Injection into the dermis facilitates external visualization and assessment of the irritant.
Nine to ten week old female Sprague Dawley rats, having approximate body weight of 200-250 grams, were employed for the study. One day prior to injection, rats were shaved and hair on the back and flank area were removed by Nair® cream (exposure less than 1 min to depilation cream) followed by deep wash with warm tap water. On the day of dosing, all rats were injected intradermally in flank area (one or two injection spots per side), with 0.1 or 0.2 mL as indicated of zoledronic acid solution, with or without rHuPH20, at each corresponding concentration as shown in study design table. Injection site appearance was observed and quantified by blind assessment each day following the injection until the end of the study, at which time animals were sacrificed and the skin around the dosing area as well as a part of the skin that was not effected by the dosing were collected and fixed in 10% neutral buffered formalin (NBF) and further embedded in paraffin, 5 μm sections were cut for H&E stain and histopathology evaluation.
Lesion area was calculated by the following formula: W×L×¼π. Quantitative results were analyzed using one-way analysis of variance (ANOVA) method, followed by Dunnett's comparison method (Prizm 4 program). The probability values of less than 0.05 (two-tailed) were used as the critical level of significance for all tests. Groups with a sample size of two were excluded from analysis. If the sample size was 2 for the control group, there were no statistical analyses at that interval for any of the groups. Histopathologic findings were characterized by semi-quantitative analysis of necrosis and infiltration in the skin tissue. The incidences of each finding were compared with control groups by Chi-square test.
Prior to ZA intradermal injection, rats were randomized by body weight into 7 groups of 1 or 2 rats per group (Table 2). Rats were injected with either 0.1 mL or 0.2 mL of each corresponding concentration intradermally at two separate locations on each shaved flank side for a total of 4 injections for each animal. Injection sites were observed daily post-injection for four days. Pictures of injection site reaction (ISR) area were captured by digital camera and lesion area was scored for induration, erythema, or ulceration. Two perpendicular diameters (width & length) of injection site lesion were measured by microcaliper. The lesion area was defined as the area bounded by the outer edge of the erythemic zone. Upon completion of the study, the animals were euthanized and skin at the injection site and from an untreated area of the back of the rat were excised, mounted flat onto a piece of cardboard, and placed in 10% NBF.
A series of experiments were conducted in which various dosing concentrations of rHuPH20 were tested for the ability to reduce acute injection site lesions. Prior to ZA intra-dermal injection, rats were randomized by body weight into 11 groups of 2 rats per group. Rats were injected intradermally with 0.1 mL of each co-formulated solution as shown in Table 5 and observed daily with ISR development assessed as in Section B. Four days after injection, rats were sacrificed and the skin at the injection site as well as untreated skin from the back was excised, mounted flat onto a piece of cardboard, and placed in 10% NBF.
Prior to ZA intra-dermal injection, rats were randomized by body weight into 6 groups of 3 rats per group (Table 6). Rats were intradermally injected with 0.1 mL of each corresponding co-formulated solution at two separate locations, two on each shaved flank side, for a total of 4 injections for each animal. Injection sites were observed daily with ISR development assessed as in Section B for 6 days. […]

[1] = Hyaluronidase activity microturbidity (turbidometric) assay; assay type: biochemical; details: purified soluble rHuPH20 (Gen1, 5 L bioreactor); USP reference standard
Method: Hyaluronidase activity can be assessed using methods well known in the art. In one example, activity is measured using a microturbidity assay. This is based on the formation of an insoluble precipitate when hyaluronic acid binds with serum albumin. The activity is measured by incubating hyaluronidase with sodium hyaluronate (hyaluronic acid) for a set period of time (e.g. 10 minutes) and then precipitating the undigested sodium hyaluronate with the addition of acidified serum albumin. The turbidity of the resulting sample is measured at 640 nm after an additional development period. […] Following incubation with hyaluronidase, the residual biotinylated hyaluronic acid substrate is detected using an avidin-peroxidase reaction, and compared to that obtained following reaction with hyaluronidase standards of known activity.
Hyaluronidase activity of soluble rHuPH20 in samples such as cell cultures, purification fractions and purified solutions was determined using a turbidometric assay, which based on the formation of an insoluble precipitate when hyaluronic acid binds with serum albumin. The activity is measured by incubating soluble rHuPH20 with sodium hyaluronate (hyaluronic acid) for a set period of time (10 minutes) and then precipitating the undigested sodium hyaluronate with the addition of acidified serum albumin. […]

B1: rHuPH20: soluble form of human PH20 hyaluronidase recombinantly expressed in Chinese Hamster Ovary (CHO) cells (protein, listed as Homo sapiens)
chain: LNFRAPPVIPNVPFLWAWNAPSEFCLGKFDEPLDMSLFSFIGSPRINATGQGVTIFYVDRLGYYPYIDSITGVTVNGGIPQKISLQDHLDKAKKDITFYMPVDNLGMAVIDWEEWRPTWARNWKPKDVYKNRSIELVQQQNVQLSLTEATEKAKQEFEKAGKDFLVETIKLGKLLRPNHLWGYYLFPDCYNHHYKKPGYNGSCFNVEIKRNDDLSWLWNESTALYPSIYLNTQQSPVAATLYVRNRVREAIRVSKIPDAKSPLPVFAYTRIVFTDQVLKFLSQDELVYTFGETVALGASGIVIWGTLSIMRSMKSCLLLDNYMETILNPYIINVTLAAKMCSQVLCQEQGVCIRKNWNSSDYLHLNPDNFAIQLEKGGKFTVRGKPTLEDLEQFSEKFYCSCYSTLSCKEKADVKDTDAVDVCIADGVCIDAFLKPPMETEEPQIFY
modifications: soluble rHuPH20 1-447
notes: soluble form of human PH20 hyaluronidase recombinantly expressed in Chinese Hamster Ovary (CHO) cells
Q: With B1 as the molecule, how does the “rHuPH20 concentration with maximal effect on ISR formation” value (Sprague Dawley rats; rat ID model, preliminary experiments) read?
A: 10,000 U/mL

Q: What about the “suppression of injection site lesion formation” value (Sprague Dawley rats; rat ID, 10,000 U/mL rHuPH20 co-formulated with ZA up to 0.05 mg/mL) of the same molecule?
A: complete suppression

Q: What about the “threshold of rHuPH20 in lesion area reduction” value (Sprague Dawley rats; rat ID, all ZA concentrations tested (0.05 to 0.4 mg/ml)) of the same molecule?
A: 100 U/mL

Q: What about the “rHuPH20 concentration at which maximal activity was reached” value (Sprague Dawley rats; rat ID, regardless of ZA concentration (0.05 to 0.4 mg/ml)) of the same molecule?
A: 1000 U/mL

Q: And the “shift of half maximal effect (EC50) of ZA concentration vs lesion area curve” value (“shift of half maximal effect” for short) (Sprague Dawley rats; rat ID, day 2)?
A: approximately 2.4 fold

Q: What about the “shift of half maximal effect” value (Sprague Dawley rats; rat ID, day 3) of the same molecule?
A: ~3.3 fold

Q: What about the “shift of half maximal effect” value (Sprague Dawley rats; rat ID, day 4) of the same molecule?
A: ~5.7 fold

Q: And the specific activity [1]?
A: > 65,000 USP Units/mg protein
